From patent US20120301468A1, “ANTI-MN ANTIBODIES AND METHODS OF USING SAME” (BAYER HEALTHCARE LLC, priority 2005, published 2012) come the findings set out here.

In the assay the target is human MN protein, entire extra-cellular domain with a C-terminal histag, expressed in HKB-11 cells (human), Q16790. Description: SPR, BIAcore 3000, IgG captured by anti-human IgG Fc, MN as analyte, 1:1 Langmuir fit. As to conditions: remark: other sources report otherwise.

B1: 3a4 full-length human IgG1 (antibody, V domains shown)
VH: QVELVESGGGLVQPGGSLRLSCAASGFTFSDYSINWVRQAPGKGLEYVSNISYSGSSTYYADSVKGRFTISRDNSKNTLYLQMNSLRAEDTAVYYCARFKYSGGSDSWGQGTLVTVSS
VL: DIELTQPPSVSVAPGQTARISCSGDNLPDFYVHWYQQKPGQAPVLVISEDNKRPSGIPERFSGSNSGNTATLTISGTQAEDEADYYCSTYGYTYSYSVFGGGTKLTVL
In turn, B1 displayed a Kd of 1 nM.
